Measurements as given in publication PMC9190010, “Giardia intestinalis thymidine kinase is a high-affinity enzyme crucial for DNA synthesis and an exploitable target for drug discovery” (The Journal of Biological Chemistry, 2022).

Experiments:
[1] = target: T1, G. intestinalis thymidine kinase (TK) (Giardia duodenalis, UniProt A8BRU1); assay: thymidine kinase assay (phosphorylation of the nucleoside); assay type: biochemical; settings: 2 mM ATP, 5 mM MgCl2, 0.5 mM DTT, 100 mM potassium acetate, 50 mM Tris-HCl pH 7.5, 37 °C
T1 construct: gene GL50803_008364; full length, 392 residues, 42 kDa, monomer (mass photometry); expressed in E. coli BL21(DE3)pLysS from pET-Z as His6-Z fusion, tag removed with TEV protease; two TK1-like domains (1-210 active, 211-392 degenerate)
T1 sequence (A8BRU1 1-392): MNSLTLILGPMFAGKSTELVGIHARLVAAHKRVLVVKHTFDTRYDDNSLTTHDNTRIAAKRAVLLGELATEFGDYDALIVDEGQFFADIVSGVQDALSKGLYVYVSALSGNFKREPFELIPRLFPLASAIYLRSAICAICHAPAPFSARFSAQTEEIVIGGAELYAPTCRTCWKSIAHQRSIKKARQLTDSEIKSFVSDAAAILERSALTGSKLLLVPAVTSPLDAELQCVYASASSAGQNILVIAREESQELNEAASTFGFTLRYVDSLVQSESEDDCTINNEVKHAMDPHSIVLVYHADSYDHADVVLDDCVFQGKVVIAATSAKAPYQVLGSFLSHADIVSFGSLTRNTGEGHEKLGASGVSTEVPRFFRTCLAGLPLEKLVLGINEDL
Excerpt: (§1) thymidine kinase assay (phosphorylation of the nucleoside) on G. intestinalis thymidine kinase (TK)

[2] = target: T1, G. intestinalis thymidine kinase (TK); assay: radiometric [[…]'-3H]thymidine phosphorylation, DE81 / Hybond-XL filter assay; assay type: biochemical
purified protein [3] = substrate: O=c1ccn([C@@H]2O[C@H](COP(=O)(O)OP(=O)(O)OP(=O)(O)O)[C@@H](O)[C@H]2O)c(=O)[nH]1; assay: purified protein; assay type: biochemical, Giardia duodenalis; settings: phosphate donor varied, 1 μM thymidine, 10 mM MgCl2, pH 7.5, 37 °C
purified protein [4] = substrate: Nc1ncnc2c1ncn2[C@@H]1O[C@H](COP(=O)(O)OP(=O)(O)OP(=O)(O)O)[C@@H](O)[C@H]1O; assay: purified protein; assay type: biochemical, Giardia duodenalis; settings: phosphate donor varied, 1 μM thymidine, 10 mM MgCl2, pH 7.5, 37 °C
purified protein [5] = substrate: Nc1ccn([C@@H]2O[C@H](COP(=O)(O)OP(=O)(O)OP(=O)(O)O)[C@@H](O)[C@H]2O)c(=O)n1; assay: purified protein; assay type: biochemical, Giardia duodenalis; settings: phosphate donor varied, 1 μM thymidine, 10 mM MgCl2, pH 7.5, 37 °C
purified protein [6] = substrate: Nc1nc2c(ncn2[C@@H]2O[C@H](COP(=O)(O)OP(=O)(O)OP(=O)(O)O)[C@@H](O)[C@H]2O)c(=O)[nH]1; assay: purified protein; assay type: biochemical, Giardia duodenalis; settings: phosphate donor varied, 1 μM thymidine, 10 mM MgCl2, pH 7.5, 37 °C
[7] = substrate: O=c1ccn([C@H]2C[C@H](O)[C@@H](CO)O2)c(=O)[nH]1; assay: thymidine kinase assay (phosphorylation of the nucleoside); assay type: biochemical, Giardia duodenalis; settings: 2 mM ATP, 5 mM MgCl2, 0.5 mM DTT, 100 mM potassium acetate, 50 mM Tris-HCl pH 7.5, 37 °C
Excerpt: as §1

[8] = substrate: Cc1cn([C@@H]2O[C@H](CO)[C@@H](O)[C@@H]2O)c(=O)[nH]c1=O; assay: as above; assay type: biochemical, Giardia duodenalis; settings: 2 mM ATP, 5 mM MgCl2, 0.5 mM DTT, 100 mM potassium acetate, 50 mM Tris-HCl pH 7.5, 37 °C
Excerpt: as §1

[9] = substrate: Cc1cn([C@H]2C=C[C@@H](CO)O2)c(=O)[nH]c1=O; assay: as above; assay type: biochemical, Giardia duodenalis; settings: 2 mM ATP, 5 mM MgCl2, 0.5 mM DTT, 100 mM potassium acetate, 50 mM Tris-HCl pH 7.5, 37 °C
Excerpt: as §1

Cc1cn([C@H]2C[C@H](N=[N+]=[N-])[C@@H](CO)O2)c(=O)[nH]c1=O [AZT]
Km (μM) [1]: 0.044 ± 0.002 (12%) μM

Cc1cn([C@H]2C[C@H](O)[C@@H](COP(=O)(O)OP(=O)(O)OP(=O)(O)O)O2)c(=O)[nH]c1=O [dTTP]
IC50 [2]: 30 ± 3 µM

B1: G. intestinalis thymidine kinase (TK) (Giardia lamblia ATCC 50803) (protein)
chain: T1 sequence (A8BRU1 1-392)
notes: full length, 392 residues, 42 kDa, monomer (mass photometry); expressed in E. coli BL21(DE3)pLysS from pET-Z as His6-Z fusion, tag removed with TEV protease; two TK1-like domains (1-210 active, 211-392 degenerate)
Km (purified protein [3]): 1927 ± 269 µM | Vmax (purified protein [3]): 1.66 µmol/min | kcat (purified protein [3]): 1.16 s⁻¹ | kcat/Km (purified protein [3]): 600 M⁻¹ s⁻¹ | Km (purified protein [4]): 467 ± 29 µM | Vmax (purified protein [4]): 0.93 µmol/min | kcat (purified protein [4]): 0.65 s⁻¹ | kcat/Km (purified protein [4]): 1400 M⁻¹ s⁻¹ | Km (purified protein [5]): 2396 ± 199 µM | Vmax (purified protein [5]): 1.7 µmol/min | kcat (purified protein [5]): 1.19 s⁻¹ | kcat/Km (purified protein [5]): 500 M⁻¹ s⁻¹ | Km (purified protein [6]): 1303 ± 78 µM | Vmax (purified protein [6]): 2.41 µmol/min | kcat (purified protein [6]): 1.69 s⁻¹ | kcat/Km (purified protein [6]): 1300 M⁻¹ s⁻¹ | Km [7]: 5.3 ± 1.3 µM | Vmax [7]: 1.02 µmol/min | kcat [7]: 0.67 s⁻¹ | kcat/Km [7]: 134000 M⁻¹ s⁻¹ | Km [8]: 425 ± 47 µM | Vmax [8]: 0.68 µmol/min | kcat [8]: 0.48 s⁻¹ | kcat/Km [8]: 1100 M⁻¹ s⁻¹ | Km [9]: 39 ± 13 µM | Vmax [9]: 0.25 µmol/min | kcat [9]: 0.17 s⁻¹ | kcat/Km [9]: 4500 M⁻¹ s⁻¹
